Numbered stars: 1 amine (or outer) side, 2 acyl side, 3 side chain; on linkers, the order of the positions; unused ones are H or OH. Bridge positions count the residues as written; N and C are the ends. Square brackets hold non-standard residues; d marks the D form. Ends that are not written are not given here. 1Nal = N[C@@H](Cc1cccc2ccccc12)C(=O)O; TBMB = c1c(C[*:1])cc(C[*:3])cc1C[*:2]; Gly(cPent) = N[C@H](C(=O)O)C1CCCC1; hArg = N=C(N)NCCCC[C@H](N)C(=O)O; Tle = CC(C)(C)[C@H](N)C(=O)O; Aib = CC(C)(N)C(=O)O; βAla = NCCC(=O)O; Sar = CNCC(=O)O Some results are limits rather than exact numbers.

T1 sequence (P29317 24-537): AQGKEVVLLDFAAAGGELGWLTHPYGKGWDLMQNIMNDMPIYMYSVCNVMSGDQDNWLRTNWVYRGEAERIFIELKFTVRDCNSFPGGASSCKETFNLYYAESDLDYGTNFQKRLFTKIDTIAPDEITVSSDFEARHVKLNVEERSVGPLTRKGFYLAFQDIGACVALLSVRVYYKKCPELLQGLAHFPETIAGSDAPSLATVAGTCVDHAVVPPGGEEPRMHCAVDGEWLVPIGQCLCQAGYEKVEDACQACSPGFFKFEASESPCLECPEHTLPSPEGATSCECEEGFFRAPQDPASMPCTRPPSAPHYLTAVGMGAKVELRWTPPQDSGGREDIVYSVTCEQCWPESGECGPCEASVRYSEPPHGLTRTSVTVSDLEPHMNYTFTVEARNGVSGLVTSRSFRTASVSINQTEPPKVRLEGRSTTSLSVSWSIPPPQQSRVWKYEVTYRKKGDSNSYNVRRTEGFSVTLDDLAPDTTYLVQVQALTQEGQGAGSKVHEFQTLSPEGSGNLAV

The first assay has as its target T1, Human EphA2 (Ecto) (Human, UniProt P29317 24-537).
T1 construct: extracellular domain
The assay can be described thus: FP competition; competitor Compound 18.
What is called Ki is the dissociation constant of the complex between target and ligand, obtained from inhibition or displacement. On to [βAla][Sar][Sar][Sar][Sar][Sar][Sar][Sar][Sar][Sar][Sar]H[dD]VPC[Aib]WGP[hArg]WCP[Tle]N[hArg]P[dD]C (linker 16-23-30 via TBMB) [Compound 246], for which the Ki was 31.4 nM.

For [βAla][Sar][Sar][Sar][Sar][Sar][Sar][Sar][Sar][Sar][Sar]H[dD]VPC[Aib][1Nal]G[Aib]F[1Nal]CP[Tle]N[hArg][Aib][dD]C (linker 16-23-30 via TBMB) [Compound 238], the Ki turned out to be 2.83 nM.

For Ac-[Sar][Sar]H[dD]VTCP[1Nal]G[Aib]F[1Nal]CP[Tle]NR[Aib]GC (linker 7-14-21 via TBMB) [Compound 285], the Ki worked out at 1.21 nM.

Turning to [βAla][Sar][Sar][Sar][Sar][Sar][Sar][Sar][Sar][Sar][Sar]H[dD][Gly(cPent)]TCP[1Nal]G[Aib]F[1Nal]CP[Tle]NR[Aib]GC (linker 16-23-30 via TBMB) [Compound 279], the Ki was 0.59 nM.

In turn, [βAla][Sar][Sar][Sar][Sar][Sar][Sar][Sar][Sar][Sar][Sar]H[dD][Gly(cPent)]PC[Aib]WG[Aib]FWCP[Tle]NR[Aib][dD]C (linker 16-23-30 via TBMB) [Compound 275] returned a Ki of 15.9 nM.

As to [βAla][Sar][Sar][Sar][Sar][Sar][Sar][Sar][Sar][Sar][Sar]H[dD]VPC[dA][1Nal]G[Aib]F[1Nal]CP[Tle]N[hArg]P[dD]C (linker 16-23-30 via TBMB) [Compound 248], the Ki is 28.4 nM.

Take {Ac-βAla}-[Sar][Sar][Sar][Sar][Sar][Sar][Sar][Sar][Sar][Sar]H[dD]VPCP[1Nal]G[Aib]F[1Nal]CP[Tle]NR[Aib]GC (linker 15-22-29 via TBMB) [Compound 258]: the Ki was 0.54 nM.

The molecule [βAla][Sar][Sar][Sar][Sar][Sar][Sar][Sar][Sar][Sar][Sar]H[dD]VPCP[1Nal]G[Aib]FWCP[Tle]N[hArg]P[dD]C (linker 16-23-30 via TBMB) [Compound 265] registered a Ki of 1.55 nM.

In turn, [βAla][Sar][Sar][Sar][Sar][Sar][Sar][Sar][Sar][Sar][Sar]H[dD][Gly(cPent)]TCP[1Nal]G[Aib]F[1Nal]CP[Tle]N[hArg]P[dD]C (linker 16-23-30 via TBMB) [Compound 280] showed a Ki of 0.64 nM.

The molecule [βAla][Sar][Sar][Sar][Sar][Sar][Sar][Sar][Sar][Sar][Sar]H[dD]VPCP[1Nal]G[Aib][hArg][1Nal]CP[Tle]NR[Aib][dD]C (linker 16-23-30 via TBMB) [Compound 250] came in with a Ki of 1.48 nM.

The molecule [βAla][Sar][Sar][Sar][Sar][Sar][Sar][Sar][Sar][Sar][Sar]H[dD]VPC[Aib][1Nal]GP[hArg][1Nal]CP[Tle]N[hArg]P[dD]C (linker 16-23-30 via TBMB) [Compound 244] displayed a Ki of 2.8 nM.

With {Ac-βAla}-[Sar][Sar][Sar][Sar][Sar][Sar][Sar][Sar][Sar][Sar]H[dD][Gly(cPent)]PC[Aib][1Nal]G[Aib]F[1Nal]CP[Tle]NR[Aib][dD]C (linker 15-22-29 via TBMB) [Compound 274], the Ki turned out to be 2.28 nM.

With {Ac-βAla}-[Sar][Sar][Sar][Sar][Sar][Sar][Sar][Sar][Sar][Sar]H[dD]VPCP[1Nal]G[Aib]F[1Nal]CP[Tle]NR[Aib][dD]C (linker 15-22-29 via TBMB) [Compound 260], the inhibitory constant (Ki) was found to be 0.75 nM.

{Ac-βAla}-[Sar][Sar][Sar][Sar][Sar][Sar][Sar][Sar][Sar][Sar]H[dD]VPC[Aib][1Nal]G[Aib]F[1Nal]CP[Tle]NR[Aib][dD]C (linker 15-22-29 via TBMB) [Compound 241] yielded a Ki of 2.98 nM.

In turn, [βAla][Sar][Sar][Sar][Sar][Sar][Sar][Sar][Sar][Sar][Sar]H[dD]VPCPWG[Aib]F[1Nal]CP[Tle]N[hArg]P[dD]C (linker 16-23-30 via TBMB) [Compound 269] yielded a Ki of 1.11 nM.

Turning to [βAla][Sar][Sar][Sar][Sar][Sar][Sar][Sar][Sar][Sar][Sar]H[dD]VPCP[1Nal]G[Aib]F[1Nal]CP[Tle]N[hArg]PGC (linker 16-23-30 via TBMB) [Compound 257], the Ki stood at 1.07 nM.

On to [βAla][Sar][Sar][Sar][Sar][Sar][Sar][Sar][Sar][Sar][Sar]H[dD]VPCP[1Nal]G[Aib]F[1Nal]CP[Tle]N[hArg][Aib][dD]C (linker 16-23-30 via TBMB) [Compound 259], for which the Ki was 0.91 nM.

[βAla][Sar][Sar][Sar][Sar][Sar][Sar][Sar][Sar][Sar][Sar]H[dD]VPC[Aib]WGP[hArg]WCP[Tle]N[hArg]P[dD]C (linker 16-23-30 via TBMB) [Compound 247]: the Ki was 29.7 nM.

The molecule [βAla][Sar][Sar][Sar][Sar][Sar][Sar][Sar][Sar][Sar][Sar]H[dD]VPC[Aib][1Nal]GP[hArg][1Nal]CP[Tle]NR[Aib]GC (linker 16-23-30 via TBMB) [Compound 243] yielded a Ki of 2.83 nM.

Ac-[Sar][Sar]H[dD]VPCP[1Nal]G[Aib]F[1Nal]CP[Tle]N[hArg]PGC (linker 7-14-21 via TBMB) [Compound 253] yielded a Ki of 0.85 nM.

Consider [βAla][Sar][Sar][Sar][Sar][Sar][Sar][Sar][Sar][Sar][Sar]H[dD][Gly(cPent)]PCP[1Nal]G[Aib]F[1Nal]CP[Tle]NR[Aib]GC (linker 16-23-30 via TBMB) [Compound 278], for which the Ki was determined as 0.46 nM.

{Ac-βAla}-[Sar][Sar][Sar][Sar][Sar][Sar][Sar][Sar][Sar][Sar]H[dD][Gly(cPent)]PCP[1Nal]G[Aib]F[1Nal]CP[Tle]N[hArg]P[dD]C (linker 15-22-29 via TBMB) [Compound 277]: the Ki came to 0.53 nM.

Consider [βAla][Sar][Sar][Sar][Sar][Sar][Sar][Sar][Sar][Sar][Sar]H[dD]VPCP[1Nal]G[Aib][hArg][1Nal]CP[Tle]NR[Aib]GC (linker 16-23-30 via TBMB) [Compound 249], for which the Ki stood at 1.38 nM.

[βAla][Sar][Sar][Sar][Sar][Sar][Sar][Sar][Sar][Sar][Sar]H[dD]VPC[Aib][1Nal]G[Aib]FWCP[Tle]N[hArg]P[dD]C (linker 16-23-30 via TBMB) [Compound 242] displayed a Ki of 7.77 nM.

On to [βAla][Sar][Sar][Sar][Sar][Sar][Sar][Sar][Sar][Sar][Sar]H[dD]VPC[Aib][1Nal]G[Aib]F[1Nal]CP[Tle]NR[Aib]GC (linker 16-23-30 via TBMB) [Compound 239], for which the Ki amounted to 4.91 nM.

{Ac-βAla}-[Sar][Sar][Sar][Sar][Sar][Sar][Sar][Sar][Sar][Sar]H[dD]VPC[Aib][1Nal]G[Aib]F[1Nal]CP[Tle]N[hArg]P[dD]C (linker 15-22-29 via TBMB) [Compound 237] yielded a Ki of 2.4 nM.

[βAla][Sar][Sar][Sar][Sar][Sar][Sar][Sar][Sar][Sar][Sar]H[dD]VPCP[1Nal]G[Aib][hArg][1Nal]CP[Tle]N[hArg]P[dD]C (linker 16-23-30 via TBMB) [Compound 251] gave an inhibition constant Ki of 1.93 nM.

A further assay deals with T2, Human EphA2 (Human, UniProt P29317 24-537).
T2 construct: extracellular domain; also called EphA2 (Ecto), Human
T2 sequence (P29317 24-537): as above
The assay can be described thus: FP competition; competitor: fluorescent Compound 18. Here is the method: Peptides without a fluorescent tag were tested in competition with a peptide with a fluorescent tag and a known Kd (Table 2). Peptides were diluted to an appropriate concentration in assay buffer as described in the direct binding assay with a maximum of 5% DMSO, then serially diluted 1 in 2. Five μL of diluted peptide was added to the plate followed by 10 μL of human or mouse EphA2 (Table 1) at a fixed concentration which was dependent on the fluorescent peptide used (Table 2), then 10 μL fluorescent peptide added. Measurements were conducted as for the direct binding assay, however the gain was determined prior to the first measurement.
For Ac-[Sar][Sar]A[dD]VTCPWGPAWCPVNRPGC (linker 7-14-21 via TBMB, bicyclic peptide) [Compound 173], the Ki is 6.69 nM.

Consider [Sar][Sar]ACPWAPFWCPVNRPGC (linker 4-11-18 via TBMB, bicyclic peptide) [Compound 288], for which the Ki was over 1000 nM.

As for [Sar][Sar]ACPWGPFWCAVNRPGC (linker 4-11-18 via TBMB, bicyclic peptide) [Compound 291], the Ki is over 1000 nM.

As to ADVHCPWAPFWCPVNRPGCA (linker 5-12-19 via TBMB, bicyclic peptide) [Compound 151], the Ki amounted to 394 nM.

As for ADVHCPWGAFWCPVNRPGCA (linker 5-12-19 via TBMB, bicyclic peptide) [Compound 152], the Ki amounted to 1.8 nM.
